Data published in US10400249B2, “HPPD variants and methods of use” (priority 2014, dated 2019).
Numbering of substitutions follows the chain as printed. Names may count otherwise.

Test system: maize T0 events
Test: greenhouse spray test of maize T0 events for tolerance to Cmpd. 4
Assay type: in vivo
Settings: Cmpd. 4 at 100 g AI/ha; for number of maize T0 events in herbicide tolerance class 0 (41%-100% damaged leaf area) / number of maize T0 events in herbicide tolerance class 1 (16%-41% damaged leaf area) / number of maize T0 events in herbicide tolerance class 2 (6%-15% damaged leaf area) / number of maize T0 events in herbicide tolerance class 3 (0%-5% damaged leaf area): six days after application
Source text: Constructing the plant expression cassette for stable expression in the maize plant and maize transformation are well known in the art and in this particular example the methods were described and used from the PCT patent publication WO2014/043435 and WO2008/100353. The polynucleotide sequences encoding the HPPD variants in this application have been stacked with a DNA sequence encoding an EPSPS protein variant to confer tolerance to herbicides, which target the EPSPS. The EPSPS gene was isolated and mutated from Arthrobacter globiformis (WO2008/100353) and joined in-frame to a transit peptide sequence to guide translocation of the translated protein to the chloroplast.
The corresponding HPPD variants were cloned with the same promoter, chloroplast transit peptide, and terminator sequence as described for the EPSPS gene expression cassette. The coding sequences for both genes have been codon optimized for maize expression. For the maize transformation ears are best collected 8-12 days after pollination. Embryos were isolated from the ears, and those embryos 0.8-1.5 mm in size were preferred for use in transformation. Embryos were plated scutellum side-up on a suitable incubation media, and incubated overnight at 25° C. in the dark.
However, it was not necessary per se to incubate the embryos overnight. Embryos are contacted with an Agrobacterium strain containing the appropriate vectors having a nucleotide sequence of the present invention for Ti plasmid mediated transfer for about 5-10 min, and then plated onto co-cultivation media for about 3 days (25° C. in the dark). After co-cultivation, explants were transferred to recovery period media for about five days (at 25° C. in the dark). Explants were incubated in selection media with glyphosate for up to eight weeks, depending on the nature and characteristics of the particular selection utilized. After the selection period, the resulting callus were transferred to embryo maturation media, until the formation of mature somatic embryos is observed. The resulting mature somatic embryos were then placed under low light, and the process of regeneration was initiated as known in the art. The resulting shoots were allowed to root on rooting media, and the resulting plants were transferred to nursery pots and propagated as transgenic plants. Plants were routinely analyzed for the expression and presence of the transgenes using the ELISA protein detection method. Only plants recovering in the selection media and having a detectable HPPD transgene protein expression were used for the herbicide tolerance analysis.
Regenerated T0 events from tissue culture were transplanted into two inch square pots with synthetic soil (Fafard® Mix) and controlled-released fertilizer (Haifa Multicote™; polymer-coated controlled-release fertilizer, NPK Pro 18-6-12+ Micronutrients) and cultivated in the greenhouse (GH) under supplementary high pressure sodium light for 12 days at a maximum of 30° C. during the day and a minimum of 22° C. at night. Fully recovered plants were transferred into five inch square pots filled with synthetic soil and control released fertilizer under the same environmental conditions. After seven days the T0 plants have been sprayed with 2-chloro-3-(methylsulfanyl)-N-(1-methyl-1H-tetrazol-5-yl)-4-(trifluoromethyl)benzamide (Cmpd. 4); at agronomic relevant concentration of 100 g AI/ha (with “g AI/ha” meaning “gram of active ingredient per hectare”) prepared from a WP20 (wettable powder 20%) formulation supplemented with esterified vegetable oil mixture (Hasten™ spray adjuvants, 0.578% v/v) and ammonium sulphate (AMS, 0.97% w/v). The herbicide treatment was conducted in a DeVries Tracker Sprayer system with standard application protocols, which are well known in the art. As a spray control T0 events have been sprayed with the adjuvant mixture lacking the herbicide. […]

B1: FLP136: PfHPPD variant P215L, E335P, G336F (protein)
chain: MADLYENPMGLMGFEFIEFASPTPGTLEPIFEIMGFTKVATHRSKNVHLYRQGEINLILNNEPNSIASYFAAEHGPSVCGMAFRVKDSQKAYNRALELGAQPIHIDTGPMELNLPAIKGIGGAPLYLIDRFGEGSSIYDIDFVYLEGVERNPVGAGLKVIDHLTHNVYRGRMVYWANFYEKLFNFREARYFDIKGEYTGLTSKAMSAPDGMIRILLNEESSKGAGQIEEFLMQFNGEGIQHVAFLTDDLVKTWDALKKIGMRFMTAPPDTYYEMLEGRLPDHGEPVDQLQARGILLDGSSVEGDKRLLLQIFSETLMGPVFFEFIQRKGDDGFGPFNFKALFESIERDQVRRGVLTAD
modifications: HPPD variant - FLP136
notes: PfHPPD variant P215L, E335P, G336F
With B1 the “share of tested maize events with good to high tolerance, 15% or less bleached leaf area” value was “Approximately 40%”, the “share of tested maize events with less than 5% or no visual leaf damage” value was roughly 15% and the “number of maize T0 events in herbicide tolerance class 0 (41%-100% damaged leaf area)” value was 13. The “number of maize T0 events in herbicide tolerance class 1 (16%-41% damaged leaf area)” value was 37, the “number of maize T0 events in herbicide tolerance class 2 (6%-15% damaged leaf area)” value was 21 and the “number of maize T0 events in herbicide tolerance class 3 (0%-5% damaged leaf area)” value was 13.

B2: FLP202: PfHPPD variant P215L, E335P, G336F, A340E (protein)
chain: B1 chain with A340E
modifications: HPPD variant - FLP202
notes: PfHPPD variant P215L, E335P, G336F, A340E
In the case of B2, the “share of tested maize events with good to high tolerance, 15% or less bleached leaf area” value is reported as “More than 30%”, the “share of tested maize events with less than 5% or no visual leaf damage” value is reported as roughly 13% and the “number of maize T0 events in herbicide tolerance class 0 (41%-100% damaged leaf area)” value is reported as 12. The “number of maize T0 events in herbicide tolerance class 1 (16%-41% damaged leaf area)” value was 49, the “number of maize T0 events in herbicide tolerance class 2 (6%-15% damaged leaf area)” value was 16 and the “number of maize T0 events in herbicide tolerance class 3 (0%-5% damaged leaf area)” value was 12.
